Reference: US20180111972A1 (Stanford University, published 2018)
Where two headings read alike, the source gives them in different places.

Assays:
[1] = target: T1, human VEGFR on human umbilical vein endothelial cells (HUVECs) (human, UniProt P35968 20-1356); test: flow cytometry on HUVECs, soluble ligand titrated 3 h at 4 C, anti-FLAG-PE
T1 construct: The phosphorylation blots on these cells detect VEGFR2
Protocol: (§1) To test binding to VEGFR, human umbilical vein endothelial cells (HUVECs) and murine angiosarcoma endothelial cells (SVR) were used.
(§2) Cell-binding assay. Varying concentrations of scPDGF, scVEGF, and PDGF/VEGF ligands were incubated with 25,000 PDGFR- or VEGFR-expressing cells in binding buffer (20 mM Tris pH 7.5 with 1 mM MgCl₂, 1 mM MnCl₂, 2 mM CaCl₂, 100 mM NaCl, and 1 mg/ml BSA) for 5 hr (BJ-5ta, NIH/3T3) or 3 hr (HUVEC, SVR) at 4° C. Cells were washed and pelleted, then incubated with 1:100 R-PE-conjugated anti-FLAG antibody (Prozyme) for 15 min on ice. Cells were washed, pelleted, and resuspended in binding buffer immediately before analysis by flow cytometry using BD Accuri C6. Flow cytometry data were analyzed using BD Accuri C6 software, and statistical analysis was performed using GraphPad Prism 6.

[2] = target: T1, human VEGFR on human umbilical vein …; test: flow cytometry titration of the soluble FLAG-tagged protein on HUVECs, anti-FLAG detection
Protocol: as §1, §2

[3] = target: T1, human VEGFR on human umbilical vein …; test: flow cytometry on HUVECs, soluble ligand titrated 3 h at 4 C, anti-FLAG-PE; remark: listed apart in the source
[4] = target: T2, mouse VEGFR on SVR murine angiosarcoma endothelial cells (mouse); test: flow cytometry on SVR cells, soluble ligand titrated 3 h at 4 C, anti-FLAG-PE
T2 construct: whole, on cells
Protocol: as §1, §2

[5] = target: T2, mouse VEGFR on SVR murine angiosarcoma …; test: flow cytometry titration of the soluble FLAG-tagged protein on SVR cells, anti-FLAG detection
Protocol: as §1, §2

[6] = target: T3, VEGFR2-His (residues 1-764 of VEGFR2, Ig-like domains 1-7, with hexahistidine tag) (human, UniProt P35968 20-764); test: KinExA
T3 construct: range 1-764; Monomeric form, expressed in FreeStyle 293-F cells; also called VEGFR-His
Protocol: (§3) For KinExA measurements, a constant amount of PDGF/VEGF ligand is titrated with differing concentrations of PDGRβ-His or VEGFR2-His. The solutions are incubated for an appropriate amount of time to allow the ligand-receptor binding reaction to reach equilibrium. The solution is then briefly exposed to a solid support containing immobilized PDGFR or VEGFR, which captures unbound ligand. The amount of ligand bound to the solid support is then detected using a fluorescently-labeled antibody. […] For each binding interaction measured, curves for two concentrations of the constant ligand are performed. By performing two experiments with fixed ligand concentrations above and below the Kd, and fitting both sets of data with a nonlinear regression analysis, a more accurate measurement for the affinity can be obtained.
(§4) Kinetic Exclusion Assay (KinExA). All experiments were performed on a KinExA 3200 instrument with siliconized flow cell (Sapidyne Instruments Inc). […] 30 μg of receptor was incubated in 1 ml of 50 mM sodium bicarbonate, 0.5 M sodium citrate buffer, pH 8.3, for 2 hr at room temperature with rocking. Beads were allowed to settle by gravity and liquid removed. […] Captured PDGF/VEGF ligands were detected using a Dylight 649-conjugated anti-FLAG antibody (Rockland) at 1:1000 dilution in sample buffer. […] Data were analyzed with KinExA Pro Software.

[7] = target: T4, PDGFRβ-His (residues 1-314 of PDGFR-β with C-terminal hexahistidine tag) (human, UniProt P09619 33-314); test: KinExA
T4 construct: range 1-314; Monovalent form, expressed in FreeStyle 293-F cells; also called PDGRβ-His; PDGFR-His
Protocol: as §3, §4

[8] = target: T3, VEGFR2-His (residues 1-764 of VEGFR2, …); test: KinExA, calculated from Kd and kon
Protocol: (§5) By performing two experiments with fixed ligand concentrations above and below the Kd, and fitting both sets of data with a nonlinear regression analysis, a more accurate measurement for the affinity can be obtained.
(§6) Additionally, the kinetic parameter kₒₙ can be determined by using a “kinetics injection” experiment. A constant concentration of PDGF/VEGF ligand is injected with an equal volume of differing concentrations of PDGRβ-His or VEGFR2-His. The two solutions are allowed to mix briefly (several seconds) in the time required for the instrument to deliver the mixture to the detection bead column. The pre-equilibrium concentrations of free ligand is fit to the standard bimolecular rate equation to obtain kₒₙ.
(§7) Kinetic Exclusion Assay (KinExA). All experiments were performed on a KinExA 3200 instrument with siliconized flow cell (Sapidyne Instruments Inc). […] 30 μg of receptor was incubated in 1 ml of 50 mM sodium bicarbonate, 0.5 M sodium citrate buffer, pH 8.3, for 2 hr at room temperature with rocking. Beads were allowed to settle by gravity and liquid removed. Beads were blocked by incubating in 1 ml of 10 mg/ml BSA in 1 M Tris buffer, pH 8.0, for 1 hr at room temperature with rocking, and stored in blocking buffer at 4° C. for up to one week until use. Running buffer contained PBS with 10 mM imidazole and 0.02% sodium azide. Samples were prepared in running buffer with 1 mg/ml BSA. Binding reactions were prepared with a fixed concentration of PDGF/VEGF ligands and dilution series of PDGFR or VEGFR. Captured PDGF/VEGF ligands were detected using a Dylight 649-conjugated anti-FLAG antibody (Rockland) at 1:1000 dilution in sample buffer. Kinetic experiments were performed with the “Kinetics Injection” method defined in the KinExA software. Data were analyzed with KinExA Pro Software. The Kd was determined from a global fit of two concentration curves using the “n-curve analysis” tool and the titrant concentrations as reference. […] The kₒₙ was calculated as a fit of the pre-equilibrium free ligand concentrations to the bimolecular binding equation using the “Kinetics Injection” tool.

[9] = target: T4, PDGFRβ-His (residues 1-314 of PDGFR-β …); test: KinExA, calculated from Kd and kon
Protocol: as §5, §6, §7

[10] = target: T1, human VEGFR on human umbilical vein …; test: flow cytometry on HUVECs
Protocol: as §1, §2

[11] = target: T3, VEGFR2-His (residues 1-764 of VEGFR2, …); test: KinExA, equilibrium titration in solution, n-curve analysis
Protocol: as §3
(§8) Kinetic Exclusion Assay (KinExA). All experiments were performed on a KinExA 3200 instrument with siliconized flow cell (Sapidyne Instruments Inc). […] 30 μg of receptor was incubated in 1 ml of 50 mM sodium bicarbonate, 0.5 M sodium citrate buffer, pH 8.3, for 2 hr at room temperature with rocking. Beads were allowed to settle by gravity and liquid removed. Beads were blocked by incubating in 1 ml of 10 mg/ml BSA in 1 M Tris buffer, pH 8.0, for 1 hr at room temperature with rocking, and stored in blocking buffer at 4° C. for up to one week until use. Running buffer contained PBS with 10 mM imidazole and 0.02% sodium azide. Samples were prepared in running buffer with 1 mg/ml BSA. Binding reactions were prepared with a fixed concentration of PDGF/VEGF ligands and dilution series of PDGFR or VEGFR. Captured PDGF/VEGF ligands were detected using a Dylight 649-conjugated anti-FLAG antibody (Rockland) at 1:1000 dilution in sample buffer. Kinetic experiments were performed with the “Kinetics Injection” method defined in the KinExA software. Data were analyzed with KinExA Pro Software.

[12] = target: T4, PDGFRβ-His (residues 1-314 of PDGFR-β …); test: as above
Protocol: as §3, §8

[13] = target: T1, human VEGFR on human umbilical vein …; test: cell-based or functional assay
[14] = target: PDGFRβ on DiscoveRx PathHunter U2OS PDGFRβ reporter cells (UniProt P09619 33-1106, limits assumed); test: cell-based or functional assay
[15] = target: T2, mouse VEGFR on SVR murine angiosarcoma …; test: flow cytometry on SVR cells
Protocol: as §1, §2

[16] = target: T3, VEGFR2-His (residues 1-764 of VEGFR2, …); test: KinExA Kinetics Injection
Protocol: as §6, §7

[17] = target: T4, PDGFRβ-His (residues 1-314 of PDGFR-β …); test: KinExA Kinetics Injection
Protocol: as §6, §7

[18] = target: T5, PDGFRβ-Fc (residues 1-314 of PDGFR-β fused to the Fc region of mouse IgG2a) (human; mouse, UniProt P09619 33-314); test: titration on yeast-displayed scPDGF, flow cytometry, anti-mouse-Fc
T5 construct: range 1-314; Expressed in FreeStyle 293-F cells; also called PDGRβ-Fc; PDGFR-Fc; not shown: Fc region of mouse IgG2a
Protocol: (§9) Cells were incubated in large enough volumes to avoid ligand depletion and appropriate time to reach equilibrium. During the last hour of incubation, yeast were incubated with 1:250 dilution of chicken anti-c-Myc (Invitrogen) in PBSA. […] Yeast were washed, pelleted, and resuspended in PBSA immediately before analysis by flow cytometry using BD FACSCalibur or BD Accuri C6. Flow cytometry data were analyzed using FlowJo (v7.6.1 and v10, Treestar) or BD Accuri C6 software. Statistical analysis was performed using GraphPad Prism 6.
(§10) Bound protein was detected using fluorescently-labeled anti-His and anti-mouse-Fc antibodies.

[19] = target: T5, PDGFRβ-Fc (residues 1-314 of PDGFR-β …); test: yeast surface display titration; PDGF taken as yeast-displayed scPDGF
[20] = target: T4, PDGFRβ-His (residues 1-314 of PDGFR-β …); test: titration on yeast-displayed scPDGF, flow cytometry, anti-His
Protocol: as §9, §10

T2 sequence (P35918 20-1345): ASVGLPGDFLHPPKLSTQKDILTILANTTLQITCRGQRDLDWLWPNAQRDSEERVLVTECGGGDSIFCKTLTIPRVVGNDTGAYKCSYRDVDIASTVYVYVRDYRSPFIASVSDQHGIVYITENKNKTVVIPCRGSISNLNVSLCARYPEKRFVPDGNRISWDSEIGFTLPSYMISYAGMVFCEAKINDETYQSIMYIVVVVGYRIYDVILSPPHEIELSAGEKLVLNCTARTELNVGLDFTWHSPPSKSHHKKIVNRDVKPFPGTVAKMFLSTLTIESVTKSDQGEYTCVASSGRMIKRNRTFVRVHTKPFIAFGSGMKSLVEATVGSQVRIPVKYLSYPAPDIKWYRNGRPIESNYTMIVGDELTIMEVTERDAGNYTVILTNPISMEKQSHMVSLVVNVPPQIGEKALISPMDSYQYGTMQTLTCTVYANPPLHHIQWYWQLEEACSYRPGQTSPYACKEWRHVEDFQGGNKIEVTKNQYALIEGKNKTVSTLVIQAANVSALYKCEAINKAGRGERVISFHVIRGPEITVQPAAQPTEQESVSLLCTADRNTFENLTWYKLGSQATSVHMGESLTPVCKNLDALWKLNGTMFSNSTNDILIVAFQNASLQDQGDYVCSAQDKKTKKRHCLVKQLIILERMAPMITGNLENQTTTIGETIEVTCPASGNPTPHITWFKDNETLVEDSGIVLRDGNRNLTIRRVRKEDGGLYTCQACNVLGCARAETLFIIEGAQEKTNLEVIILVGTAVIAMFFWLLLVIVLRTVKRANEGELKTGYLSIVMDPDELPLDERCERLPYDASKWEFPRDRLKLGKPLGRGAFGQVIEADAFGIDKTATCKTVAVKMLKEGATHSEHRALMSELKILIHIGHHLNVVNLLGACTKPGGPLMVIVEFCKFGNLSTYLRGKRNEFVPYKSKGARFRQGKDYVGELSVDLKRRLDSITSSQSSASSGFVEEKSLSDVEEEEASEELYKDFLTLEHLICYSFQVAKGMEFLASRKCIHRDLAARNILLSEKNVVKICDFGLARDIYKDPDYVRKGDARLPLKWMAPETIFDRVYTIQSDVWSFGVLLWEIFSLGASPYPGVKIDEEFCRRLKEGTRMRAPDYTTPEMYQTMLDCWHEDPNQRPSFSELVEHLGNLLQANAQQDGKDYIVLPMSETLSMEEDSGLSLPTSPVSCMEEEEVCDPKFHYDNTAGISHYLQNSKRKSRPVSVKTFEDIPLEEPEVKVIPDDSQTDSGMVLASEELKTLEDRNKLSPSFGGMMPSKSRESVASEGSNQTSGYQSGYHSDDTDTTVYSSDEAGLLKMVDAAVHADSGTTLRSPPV
T1 sequence (P35968 20-1356 limits assumed): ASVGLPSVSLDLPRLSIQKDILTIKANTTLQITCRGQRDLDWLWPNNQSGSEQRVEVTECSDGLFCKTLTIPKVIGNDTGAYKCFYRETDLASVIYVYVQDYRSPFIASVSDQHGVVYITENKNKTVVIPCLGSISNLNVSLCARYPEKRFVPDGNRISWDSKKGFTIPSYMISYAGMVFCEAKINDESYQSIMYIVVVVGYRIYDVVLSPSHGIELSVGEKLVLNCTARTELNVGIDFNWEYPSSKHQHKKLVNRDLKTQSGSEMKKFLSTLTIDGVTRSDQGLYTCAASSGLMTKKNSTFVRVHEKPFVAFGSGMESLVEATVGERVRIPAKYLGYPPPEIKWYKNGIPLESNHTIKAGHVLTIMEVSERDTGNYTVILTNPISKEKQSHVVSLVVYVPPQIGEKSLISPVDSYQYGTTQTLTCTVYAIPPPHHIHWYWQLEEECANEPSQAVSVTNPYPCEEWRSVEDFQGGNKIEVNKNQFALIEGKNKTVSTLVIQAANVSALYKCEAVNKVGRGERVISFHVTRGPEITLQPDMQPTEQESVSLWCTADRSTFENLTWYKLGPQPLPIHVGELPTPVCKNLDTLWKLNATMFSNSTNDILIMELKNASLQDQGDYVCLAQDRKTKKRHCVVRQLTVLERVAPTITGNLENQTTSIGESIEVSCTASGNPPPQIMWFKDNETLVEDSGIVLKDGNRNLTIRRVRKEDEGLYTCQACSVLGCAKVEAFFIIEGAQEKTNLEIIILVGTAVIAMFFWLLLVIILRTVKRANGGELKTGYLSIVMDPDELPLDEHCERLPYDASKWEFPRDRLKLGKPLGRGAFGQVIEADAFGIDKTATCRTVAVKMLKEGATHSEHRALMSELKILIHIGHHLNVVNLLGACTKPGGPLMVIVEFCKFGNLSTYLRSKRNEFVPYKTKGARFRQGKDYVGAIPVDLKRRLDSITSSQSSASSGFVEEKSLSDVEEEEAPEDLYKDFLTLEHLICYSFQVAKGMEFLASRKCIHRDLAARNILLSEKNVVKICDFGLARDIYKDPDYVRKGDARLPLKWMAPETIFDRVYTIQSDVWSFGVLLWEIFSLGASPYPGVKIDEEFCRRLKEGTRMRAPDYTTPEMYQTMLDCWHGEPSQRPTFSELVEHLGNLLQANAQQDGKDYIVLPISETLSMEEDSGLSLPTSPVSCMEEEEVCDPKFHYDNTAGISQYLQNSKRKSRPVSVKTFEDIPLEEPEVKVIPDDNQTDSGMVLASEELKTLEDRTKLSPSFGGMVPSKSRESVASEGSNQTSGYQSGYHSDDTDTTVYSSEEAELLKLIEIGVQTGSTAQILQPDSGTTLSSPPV
T3 sequence (P35968 other isoform, or with tags, fused parts or gaps limits assumed, form in doubt): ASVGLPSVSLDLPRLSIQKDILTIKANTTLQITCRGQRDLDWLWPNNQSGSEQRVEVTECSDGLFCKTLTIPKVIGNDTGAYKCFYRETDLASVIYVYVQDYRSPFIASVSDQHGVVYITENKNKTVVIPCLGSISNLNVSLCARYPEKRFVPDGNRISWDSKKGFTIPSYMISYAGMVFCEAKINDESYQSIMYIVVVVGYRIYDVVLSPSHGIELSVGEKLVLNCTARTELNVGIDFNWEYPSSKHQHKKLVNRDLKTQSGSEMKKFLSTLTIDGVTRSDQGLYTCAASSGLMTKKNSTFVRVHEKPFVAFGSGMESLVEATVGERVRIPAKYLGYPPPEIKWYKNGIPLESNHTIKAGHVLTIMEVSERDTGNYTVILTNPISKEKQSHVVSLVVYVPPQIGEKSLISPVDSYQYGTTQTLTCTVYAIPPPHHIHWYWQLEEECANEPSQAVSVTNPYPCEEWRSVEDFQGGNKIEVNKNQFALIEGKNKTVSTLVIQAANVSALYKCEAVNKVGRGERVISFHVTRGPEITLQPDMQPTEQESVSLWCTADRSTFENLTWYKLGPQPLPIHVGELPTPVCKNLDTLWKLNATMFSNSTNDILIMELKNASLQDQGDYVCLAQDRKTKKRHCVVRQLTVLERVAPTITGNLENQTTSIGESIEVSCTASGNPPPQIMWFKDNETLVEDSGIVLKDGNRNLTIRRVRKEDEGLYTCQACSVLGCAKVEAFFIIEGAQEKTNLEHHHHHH
T5 sequence (P09619 33-314 limits assumed, form in doubt): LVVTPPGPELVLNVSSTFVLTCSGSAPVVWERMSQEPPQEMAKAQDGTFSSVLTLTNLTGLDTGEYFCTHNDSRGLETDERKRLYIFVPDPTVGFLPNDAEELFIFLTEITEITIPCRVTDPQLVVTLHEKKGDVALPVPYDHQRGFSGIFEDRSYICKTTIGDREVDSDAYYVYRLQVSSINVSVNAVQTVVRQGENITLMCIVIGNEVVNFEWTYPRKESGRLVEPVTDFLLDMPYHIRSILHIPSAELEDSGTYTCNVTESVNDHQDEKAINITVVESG

B1: scVEGFwt, single-chain version of VEGF-A, soluble, FLAG and hexahistidine tags (ligand)
chain: DYKDDDDKEVVKFMDVYQRSYCHPIETLVDIFQEYPDEIEYIFKPSCVPLMRCGGCCNDEGLECVPTEESNITMQIMRIKPHQGQHIGEMSFLQHNKCECRPKKDGSTSGSGKSSEGKGEVVKFMDVYQRSYCHPIETLVDIFQEYPDEIEYIFKPSCVPLMRCGGCCNDEGLECVPTEESNITMQIMRIKPHQGQHIGEMSFLQHNKCECRPKKDHHHHHH
notes: Expressed in Pichia pastoris GS115; also called single-chain VEGF-A
[1]
  Kd: 18 nM
[2]
  EC50 (read off the curve): ~10 nM
[3]
  Kd: 1.5 nM
[4]
  Kd: 10 nM

B2: PVGS, soluble, FLAG and hexahistidine tags (designed binder)
chain: DYKDDDDKIAEPAMIAECHPIETLVDILQEYPDEIGYIFKPSCVPLMRCGGCCNNRNVQCRPTEESNITMQIMRIKPHRGQHIGEMSFLQHNKCRCETVAAGGGGSGGGGSGGGGSGGGGSEVVKFMDVYQRSYCKTRTEVFEISRRLIDATNANFLVWPPCVEVQRCSGCCNHEGLECVPTQVQLRPVQVRKIEFVRKKPIFKKATVTLEDHLACECRPKKDHHHHHH
notes: Secreted from S. cerevisiae YVH10 at 20 C and treated with Endo Hf
[5]
  EC50 (read off the curve): ~0.5 nM
[6]
  fold improvement in affinity compared to PV6: 2700 fold
[7]
  fold improvement in binding affinity compared to PV6: 130 fold
[8]
  koff: 9.6e-06 s⁻¹
[9]
  koff: 0.00013 s⁻¹
[1]
  Kd: 0.77 nM
[10]
  fold improvement in affinity compared to PV6: 14 fold
[2]
  EC50 (read off the curve): ~0.8 nM
[11]
  Kd: 0.014 nM
[12]
  Kd: 0.0067 nM
[13]
  IC50 of inhibition of HUVEC proliferation induced by 0.5 nM VEGF165, alamarBlue: 1.2 nM
[14]
  IC50 of inhibition of stimulation by 0.5 nM PDGF-BB, PathHunter PDGFRβ reporter cells: 1.1 nM
[4]
  Kd: 0.45 nM
[15]
  fold improvement in affinity compared to PV6: 78 fold
[16]
  kon: 680000 M⁻¹ s⁻¹
[17]
  kon: 2e+07 M⁻¹ s⁻¹

B3: scPDGF, yeast-displayed (ligand)
chain: IAEPAMIAECKTRTEVFEISRRLIDRTNANFLVWPPCVEVQRCSGCCNNRNVQCRPTQVQLRPVQVRKIEIVRKKPIFKKATVTLEDHLACKCETVAAGSTSGSGKSSEGKGIAEPAMIAECKTRTEVFEISRRLIDRTNANFLVWPPCVEVQRCSGCCNNRNVQCRPTQVQLRPVQVRKIEIVRKKPIFKKATVTLEDHLACKCETVAA
[18]
  Kd: 0.028 nM
[19]
  Kd: ~0.04 nM
[20]
  Kd: 310 nM
